Laboratory results: the RNAGym collection of RNA variant scans (doi:10.7554/elife.80360)

B1: HDV Ribozyme (parent)
chain: GGCCGGCAUGGUCCCAGCCUCCUCGCUGGCGCCGGCUGGGCAACAUUCCGAGGGGACCGUCCCCUCGGUAAUGGCGAAUGGGACCCA

Variants of: B1
Assay: self-cleavage, relative activity (ratio to wild type); higher = more cleavage; co-transcriptional

In order of falling self-cleavage:
1. GGCCGGCAUGGUCCCAGCCUCCUCGCUGGCGCCGGCUGGGCAACAUUCCGAAGGGACCGUACCCUCGGUAAUGGCGAAUGGGACCCA  1.19
2. GGCCGGCAUGGUCCCGGCCUCCUCGCUGGCGCCGGCUGGGCAACAUUCCGAGGGGACCGUCCCCGCGGUAAUGGCGAAUGGGACCCA  1.01
3. GGCCGGCAUGGUCCCAGCCUCCUCGCUGGCGCCGGCUGGGCAACAUUCCAAGGGGACCGUCCCCUCGGUAAUGGCUAAUGGGACCCA  1.01
4. GGCCGGCAUGGUCCCAGCCUCCUCGAUGGCGCCGGCUGUGCAACAUUCCGAGGGGACCGUCCCCUCGGUAAUGGCGAAUGGGACCCA  0.935
5. GGCCGGCAUGGUCCCAGCCUCCUCGCUGGCGCCGGCUGGGCAACAUUCCGAAGAGACCGUCCCCUCGGUAAUGGCGAAUGGGACCCA  0.9
6. GGCCGGCAUGGUCCCAGCCUCCUCGCUGGCGCCGGCUGGGCAACAUUCCGAGGGGACCGUCCCCUCGGUAAUGGCUUAUGGGACCCA  0.868
7. GGCCGGCAUGGUCCCAGCCUCCUCGCUGGCGCCGGCUGUGCAACAUUCCGAGGGGAUCGUCCCCUCGGUAAUGGCGAAUGGGACCCA  0.831
8. GGCCGGCAUGGUCCCAGCCUCCUCGCUGGCGCCGGCUGGGCAACAUUCCGAGGGGACCGUCCCCUCGGUAAUGUCCAAUGGGACCCA  0.831
9. GGCCGGCAUGGUCCCAGCCUCCUUGCUGGCGCCGGCUGGGCAACAUUCCAAGGGGACCGUCCCCUCGGUAAUGGCGAAUGGGACCCA  0.726
10. GGCCGGCAUGGUCCCAGCCUCCUCGCUGGCGUCGGCUGGGCAACAUUCAGAGGGGACCGUCCCCUCGGUAAUGGCGAAUGGGACCCA  0.683
11. GGCCGGCAUGGUCCCAGCCUCCUCGCUGGAGCCGGCUGGGCAACAUUCCGAGGGGACCGUCCCCUCGGUAAUGGCGAAUGGGACCUA  0.68
12. GGCCGGCAUGGUCCCAGCCUCCUCGCUGGCGCCGGCUGGGCAACAUUCCGAGGGGACCGUCUCCGCGGUAAUGGCGAAUGGGACCCA  0.631
13. GGCCGGCAUGGUCCCAGCCUCCUCGCUGGCGCCGGCUGGGCAACAUUCCGAGGGGACCGUCCCCUCGGUAGUCGCGAAUGGGACCCA  0.6
14. GGCCGGCAUGUUCCCAGCCUCCUCGCAGGCGCCGGCUGGGCAACAUUCCGAGGGGACCGUCCCCUCGGUAAUGGCGAAUGGGACCCA  0.511
15. GGCCGGCAUGGUCCCAGCCUCCUCGCUGGCGCCGUCUGGGCAACAUUCCGAGGGCACCGUCCCCUCGGUAAUGGCGAAUGGGACCCA  0.409
16. GGCCGGCAUGGUCCCAGCCUCCUAGCUGGCGCCGGCUGGGCAACAUUCCGAGGGGACCGUCCCCUCGGUACUGGCGAAUGGGACCCA  0.38
17. GGCCGGCAUGGUACCAGCCUCCUCGCUGGCGUCGGCUGGGCAACAUUCCGAGGGGACCGUCCCCUCGGUAAUGGCGAAUGGGACCCA  0.375
18. GGCCGGCAUGGUCCCAGCCUCCUCGCUGGCGCCGGCAGGGCAACAUUCCGAGGGGACCGUCCCCUCGGUAAUGGCGAAUGGGACACA  0.332
19. GGCAGGCAUGGUCCCAGCCUCCUCGCUGGCGCCGGCUGGGCAACAUUCCGAGGGGACCGUCCCCUCGGUUAUGGCGAAUGGGACCCA  0.252
20. GGCCGGCAUGGUCCCAGCCUCAUCGCUGGCGCCGGCUGGGCAACAUUCCGAGAGGACCGUCCCCUCGGUAAUGGCGAAUGGGACCCA  0.222
21. GGCCGGCAUGGUCCCAGCCUCCUCACUGGCGCCGGCUGGGCAACAUUCCGAGGGGACCGUCCCCUCGGAAAUGGCGAAUGGGACCCA  0.222
22. GGCCGGCAUGGUCCCAGCCUCCUGGCUGGCGCCGGCUGGGCAACAUUCCGAGGGGACCGUCCCCUCGAUAAUGGCGAAUGGGACCCA  0.22
23. GGCCGGCAUGGUCCCAGCCUACUCGCUGGCGCCGGCUGGGCAACAUUCCGAGGGGACCGUCCCCUCGGUAAUGGCGAGUGGGACCCA  0.189
24. GGCCGGCAUGGUCCCAGCCUCCUCGCUUGCGCCGGCUGGGCAACAUUCCGAGGGGACCGUCCCCUCGGUAAUUGCGAAUGGGACCCA  0.169
25. GGCCGGCAUGAUCCCAGCCUCCUCGCUGUCGCCGGCUGGGCAACAUUCCGAGGGGACCGUCCCCUCGGUAAUGGCGAAUGGGACCCA  0.12
26. GGCCGGCAUGGUCCCAGCCUCCUCGCUGGCGACGGCUGGGCAACAUUCCGAGGUGACCGUCCCCUCGGUAAUGGCGAAUGGGACCCA  0.102
27. GGCCGGCAUGGUCCCAGCCUGCUCGCUGGCGCCGGCUGGGCAACAUUCCGAGGGGACCGUCCCCUCGGUAAUGUCGAAUGGGACCCA  0.0554
28. GGCCGGCAUGGUCCCAGCCUCCUCGCUGGCGCCGGCGGGGCAACAUUCCGAGGGGACCGACCCCUCGGUAAUGGCGAAUGGGACCCA  0.0504
29. GGCCGGCAUGGUCCCAGCCUCCUUGCUCGCGCCGGCUGGGCAACAUUCCGAGGGGACCGUCCCCUCGGUAAUGGCGAAUGGGACCCA  0.0475
30. GGCCGGCAUGGUCCCAGCCUCCUCGCUGGCGCCGGCUGGGCGACAUUCCGAGGGGACCGUCCCCUCGGUAAUGGCGAAUGUGACCCA  0.0346
31. GGCCGGCAUGGUCCCAGGCUCCUCGCUGGCGCCGGCUGGGCAACAUUCCGAGGGGACCGUCCCCUCGGUAAUGGCGAAUGGGACCAA  0
32. GGCCGGCAUGGUCCCCGCCUCCUCGCUGGCGCCGGCUCGGCAACAUUCCGAGGGGACCGUCCCCUCGGUAAUGGCGAAUGGGACCCA  0
